Experiment [1] has as its target HLA-A02.01 (human). The experiment in a line: competition vs radiolabeled reference peptide on purified MHC I, gel filtration. The procedure: (§1) Peptides were incubated at varying concentrations with these complexes for 2 days, and the amount of remaining radiolabeled peptide bound to […] was measured using size exclusion gel-filtration.
Background: Size exclusion chromatography separates by hydrodynamic size, large species first.

Experiment [2] has as its target T1, HLA-B08.01 (human).
T1 construct: As for HLA-A02.01
The experiment in a line: pMHC-I complex dissociation at 37 C, 125I-b2m, half-life. The protocol: (§2) Briefly, synthetic genes encoding biotinylated MHC-I heavy and light chains are expressed in E. coli and purified from inclusion bodies using standard methods. […] These reactions are carried out in streptavidin coated microplates to bind the biotinylated MHC-I heavy chains to the surface and allow measurement of radiolabeled light chain to monitor complex formation. Dissociation is initiated by addition of higher concentrations of unlabeled light-chain and incubation at 37° C. Stability is defined as the length of time in hours it takes for half of the complexes to dissociate, as measured by scintillation counts.

Experiment [3] addresses HLA-A02.01 (human). The experiment is described as above. The protocol:
as §2

For experiment [4], the target named is T2, HLA class I molecule B07.02.
T2 construct: Purified MHC class I complex; also called HLA-B07:02
The experiment is described as follows: competition with radiolabeled reference peptide on purified MHC I. The procedure: as §1

Experiment [5] has as its target T3, HLA-A03.01 (human).
T3 construct: As for HLA-A02.01
The experiment is described as follows: competition vs radiolabeled reference peptide on purified MHC I, gel filtration. The protocol: as §1

The target of experiment [6] is T4, HLA-A24.02 (human).
T4 construct: As for HLA-A02.01
Described as above. The procedure: as §1

The target in experiment [7] is T5, HLA-A02.01 (human).
T5 construct: Purified class I MHC
The experiment in a line: competition with radiolabeled reference peptide, purified MHC I. The protocol:
as §1

Experiment [8] has as its target T5, HLA-A02.01. The experiment in a line: pMHC-I dissociation half-life, 125I-b2m. The procedure: as §2
In experiment [9] the target is T6, HLA-B08.01 (human).
T6 construct: Purified class I MHC
The experiment in a line: pMHC-I dissociation half-life, 125I-b2m. The protocol: as §2

The term IC50 denotes the concentration that gives 50% inhibition. Lower therefore signals greater potency.

B1: IQLQDKFEHL (peptide)
peptide: IQLQDKFEHL
notes: also called EGFR: SEPT14
B1 returned an IC50 in experiment [1] of 4260 nM. The “Stability (T1/2 (h))” value in experiment [2] is 0 h; in experiment [3], 0.2 h.

B2: LQSLPRFILM (peptide)
peptide: LQSLPRFILM
notes: also called ALK, L1196M
Take B2: the “Stability (T1/2 (h))” value in experiment [2] was 0 h.

B3: RPLQTHVLPE (peptide)
peptide: RPLQTHVLPE
notes: also called GATA3 . . ; CSNH
Take B3: the 50% inhibitory concentration (IC50) in [4] amounted to 2530 nM. In other words, the single-digit micromolar range.

B4: KLFSCLSFLS (peptide)
peptide: KLFSCLSFLS
notes: also called C15ORF40(+1)
On to B4, for which the half-maximal inhibitory concentration (IC50) is 104 nM in experiment [5] and 0.6 nM in [1].

B5: SLQPPPPGFK (peptide)
peptide: SLQPPPPGFK
notes: also called C15ORF40(+1)
B5 showed a concentration for half-maximal inhibition (IC50) in experiment [5] of 19 nM.

B6: FFCYILNTMF (peptide)
peptide: FFCYILNTMF
notes: also called CNOT1(-1)
As for B6, in experiment [6], the IC50 worked out at 73.4 nM. In other words, the double-digit nanomolar range.

B7: SMLTDSLFL (peptide)
peptide: SMLTDSLFL
notes: also called VHL, QCIL
Molecule B7 displayed an IC50 in [7] of 31 nM. For the same molecule, the “Stability (T1/2 (h))” value in experiment [8] amounted to 9.8 h.

B8: MALNSEALSV (peptide)
peptide: MALNSEALSV
notes: also called TMPRSS2: ERG
Regarding B8, the “Stability (T1/2 (h))” value in experiment [9] was found to be 0 h.

B9: CMGSMNRRPI (peptide)
peptide: CMGSMNRRPI
notes: also called TP53, G245S
Turning to B9, the “Stability (T1/2 (h))” value in experiment [9] turned out to be 0 h.

B10: ALFFFFFETK (peptide)
peptide: ALFFFFFETK
notes: also called C15ORF40(+1)
Take B10: the concentration for half-maximal inhibition (IC50) in [5] was 216 nM.

B11: GPPRPPRAAC (peptide)
peptide: GPPRPPRAAC
notes: also called LMAN1(+1)
As to B11, the half-inhibitory concentration (IC50) in experiment [4] stood at 48.6 nM.

B12: TTLNSPPLKK (peptide)
peptide: TTLNSPPLKK
notes: also called β2M, . . ; MPAV
With B12, the concentration for half-maximal inhibition (IC50) in experiment [5] was 14.3 nM.

B13: SMNRRPILT (peptide)
peptide: SMNRRPILT
notes: also called TP53, G245S
With B13, in experiment [7], the half-inhibitory concentration (IC50) is 3840 nM. Moreover, the “Stability (T1/2 (h))” value in experiment [8] and in [9] was 0 h each time.

B14: VQLIMQLMPF (peptide)
peptide: VQLIMQLMPF
notes: also called EGFR, T790M
Turning to B14, the “Stability (T1/2 (h))” value in experiment [2] was 0 h.

B15: RMPPCLANF (peptide)
peptide: RMPPCLANF
notes: also called C15ORF40(+1)
With B15, the IC50 in experiment [6] is 8.7 nM. This counts as single-digit nanomolar.

B16: IMQLMPFGCL (peptide)
peptide: IMQLMPFGCL
notes: also called EGFR, T790M
Turning to B16, in [2], the “Stability (T1/2 (h))” value worked out at 0 h.

B17: LTINKEEAL (peptide)
peptide: LTINKEEAL
notes: also called BCR: ABL (e13a2, aka b2a2)
On to B17, for which, in [2], the “Stability (T1/2 (h))” value is 0 h.

B18: SLLNYLREM (peptide)
peptide: SLLNYLREM
notes: also called BTK, C481S
With B18, the “Stability (T1/2 (h))” value in experiment [2] came out at 0 h.

B19: MLTDSLFLPI (peptide)
peptide: MLTDSLFLPI
notes: also called VHL, QCIL
In the case of B19, the “Stability (T1/2 (h))” value in [9] turned out to be 0 h.

B20: MANGSLLNY (peptide)
peptide: MANGSLLNY
notes: also called BTK, C481S
Take B20: in experiment [5], the IC50 was determined as 35.6 nM.

B21: TTLNSPPLK (peptide)
peptide: TTLNSPPLK
notes: also called β2M, . . ; MPAV
As to B21, in experiment [5], the IC50 is 9.8 nM.

B22: RRMPPCLANF (peptide)
peptide: RRMPPCLANF
notes: also called C15ORF40(+1)
For B22, the half-inhibitory concentration (IC50) in [6] was determined as 141 nM.

B23: LTSSSREWK (peptide)
peptide: LTSSSREWK
notes: also called β2M, . . ; SIRH
B23 registered a concentration for half-maximal inhibition (IC50) in [5] of 118 nM.

B24: LFFFFFETK (peptide)
peptide: LFFFFFETK
notes: also called C15ORF40(+1)
With B24, the half-maximal inhibitory concentration (IC50) in experiment [5] was 413 nM.

B25: CMGGMNQRPI (peptide)
peptide: CMGGMNQRPI
notes: also called TP53, R248Q
As to B25, in experiment [7], the IC50 was found to be 3670 nM. The “Stability (T1/2 (h))” value in [8] and in experiment [9] was 0 h in each case.

B26: CMGGMNWRPI (peptide)
peptide: CMGGMNWRPI
notes: also called TP53, R248W
With B26, the “Stability (T1/2 (h))” value in [9] came to 0 h.

B27: NQRPILTII (peptide)
peptide: NQRPILTII
notes: also called TP53, R248Q
In the case of B27, the “Stability (T1/2 (h))” value in [9] was 0 h.

B28: QLQDKFEHL (peptide)
peptide: QLQDKFEHL
notes: also called EGFR: SEPT14
Take B28: the “Stability (T1/2 (h))” value was found to be 0 h in [2] and 0.6 h in experiment [3].

B29: LPRKPTRAA (peptide)
peptide: LPRKPTRAA
notes: also called TP53, QPSL
B29: the “Stability (T1/2 (h))” value in [9] came out at 0 h.

B30: CTTLNSPPLK (peptide)
peptide: CTTLNSPPLK
notes: also called β2M, . . ; MPAV
B30: the IC50 in [5] is 63.6 nM.

B31: VPAVPFDLHF (peptide)
peptide: VPAVPFDLHF
notes: also called GATA3 . . ; CSNH
As to B31, the IC50 in [4] came out at 2110 nM. This counts as single-digit micromolar.

B32: VLERCPHRPI (peptide)
peptide: VLERCPHRPI
notes: also called FGFR3, S249C
B32: the IC50 in experiment [1] worked out at 15300 nM. In addition, the “Stability (T1/2 (h))” value in experiment [2] and in [3] was 0 h each time.

B33: TQLARFFPI (peptide)
peptide: TQLARFFPI
notes: also called RNF43, RHTP
Consider B33, for which the “Stability (T1/2 (h))” value in experiment [9] was found to be 0 h.

B34: EPHLALQPL (peptide)
peptide: EPHLALQPL
notes: also called GATA3 . . ; CSNH
In turn, B34 gave a concentration for half-maximal inhibition (IC50) in [4] of 17 nM.

B35: SMNRRPILTI (peptide)
peptide: SMNRRPILTI
notes: also called TP53, G245S
Regarding B35, the “Stability (T1/2 (h))” value in [9] worked out at 0 h.

B36: MQLMPFGCLL (peptide)
peptide: MQLMPFGCLL
notes: also called EGFR, T790M
On to B36, for which the “Stability (T1/2 (h))” value in [2] stood at 0 h.

B37: RLSSVLQRF (peptide)
peptide: RLSSVLQRF
notes: also called β2M, . . ; SQIS
For B37, the 50% inhibitory concentration (IC50) in [6] is 28.2 nM. In other words, the double-digit nanomolar range.

B38: RMKVPLMK (peptide)
peptide: RMKVPLMK
notes: also called FAM111B(-1)
B38 returned an IC50 in experiment [5] of 33 nM.

B39: SVCFFFFSV (peptide)
peptide: SVCFFFFSV
notes: also called CNOT1(+1)
For B39, the “Stability (T1/2 (h))” value in [2] was 0 h.

B40: SLPRFILMEL (peptide)
peptide: SLPRFILMEL
notes: also called ALK, L1196M
As to B40, in experiment [2], the “Stability (T1/2 (h))” value was found to be 0 h.

B41: ELFPLIFPA (peptide)
peptide: ELFPLIFPA
notes: also called C11orf95: RELA
Take B41: the IC50 in experiment [1] was found to be 13 nM. The “Stability (T1/2 (h))” value in experiment [2] was determined as 0 h; in experiment [3], 5.1 h.

B42: QLIMQLMPF (peptide)
peptide: QLIMQLMPF
notes: also called EGFR, T790M
For B42, the “Stability (T1/2 (h))” value in [2] stood at 0 h.

B43: HVLPEPHLAL (peptide)
peptide: HVLPEPHLAL
notes: also called GATA3 . . ; CSNH
In experiment [4], B43 came in with an IC50 of 1330 nM.

B44: PPRPPRAAC (peptide)
peptide: PPRPPRAAC
notes: also called LMAN1(+1)
On to B44, for which the concentration for half-maximal inhibition (IC50) in experiment [4] came to 32.8 nM.

B45: LSFLSSWDYR (peptide)
peptide: LSFLSSWDYR
notes: also called C15ORF40(+1)
On to B45, for which the IC50 in [5] worked out at 101 nM.

B46: TLNSPPLKK (peptide)
peptide: TLNSPPLKK
notes: also called β2M, . . ; MPAV
B46: the 50% inhibitory concentration (IC50) in experiment [5] was found to be 5.4 nM.

B47: GMNQRPILTI (peptide)
peptide: GMNQRPILTI
notes: also called TP53, R248Q
B47 came in with a half-maximal inhibitory concentration (IC50) in [7] of 709 nM. In addition, the “Stability (T1/2 (h))” value in experiment [8] stood at 0.4 h; in [9], 0 h.

B48: GMNWRPILTI (peptide)
peptide: GMNWRPILTI
notes: also called TP53, R248W
Consider B48, for which the “Stability (T1/2 (h))” value in [9] was determined as 0 h.

B49: LLTSSSREWK (peptide)
peptide: LLTSSSREWK
notes: also called β2M, . . ; SIRH
The molecule B49 came in with a half-inhibitory concentration (IC50) in [5] of 1770 nM. This lies in the single-digit micromolar range.

B50: EYMANGSLL (peptide)
peptide: EYMANGSLL
notes: also called BTK, C481S
In turn, B50 registered an IC50 in experiment [6] of 5 nM.

B51: MQLMPFGCL (peptide)
peptide: MQLMPFGCL
notes: also called EGFR, T790M
Take B51: the “Stability (T1/2 (h))” value in experiment [2] amounted to 0 h.

B52: QPVLWTTPPL (peptide)
peptide: QPVLWTTPPL
notes: also called GATA3 . . ; CSNH
Molecule B52 gave an IC50 in experiment [4] of 109 nM. This counts as sub-micromolar.

B53: MANGSLLNYL (peptide)
peptide: MANGSLLNYL
notes: also called BTK, C481S
Consider B53, for which the “Stability (T1/2 (h))” value in experiment [2] stood at 0 h.

B54: LYGLLLEML (peptide)
peptide: LYGLLLEML
notes: also called ESR1, D538G
Take B54: the IC50 in [6] is 0.8 nM.

B55: GFKLFSCLSF (peptide)
peptide: GFKLFSCLSF
notes: also called C15ORF40(+1)
Turning to B55, the IC50 in experiment [6] turned out to be 643 nM.

B56: KFPELLCVW (peptide)
peptide: KFPELLCVW
notes: also called β2M, . . ; SIRH
In experiment [6], B56 showed a half-inhibitory concentration (IC50) of 13.7 nM.

B57: MNWRPILTI (peptide)
peptide: MNWRPILTI
notes: also called TP53, R248W
In the case of B57, the “Stability (T1/2 (h))” value in [9] amounted to 0 h.

(Values after patent US20220282217A1 (BIONTECH US, published 2022).)
